From publication PMC3572760 (Advances and Applications in Bioinformatics and Chemistry : …, 2013) come the findings set out here.

Series [1] deals with O=C(O)C1=C[C@@H](OP(=O)(O)O)[C@@H](O)[C@H](O)C1. The experiment in a line: purified protein.
The test system of the next series is C=C(OP(=O)(O)O)C(=O)O. The series is described as follows: purified protein.
In series [2] the target is T1, 5-enolpyruvylshikimate-3-phosphate synthase (EPSPS) (Escherichia coli, UniProt P0A6D3).
T1 sequence (P0A6D3 1-427): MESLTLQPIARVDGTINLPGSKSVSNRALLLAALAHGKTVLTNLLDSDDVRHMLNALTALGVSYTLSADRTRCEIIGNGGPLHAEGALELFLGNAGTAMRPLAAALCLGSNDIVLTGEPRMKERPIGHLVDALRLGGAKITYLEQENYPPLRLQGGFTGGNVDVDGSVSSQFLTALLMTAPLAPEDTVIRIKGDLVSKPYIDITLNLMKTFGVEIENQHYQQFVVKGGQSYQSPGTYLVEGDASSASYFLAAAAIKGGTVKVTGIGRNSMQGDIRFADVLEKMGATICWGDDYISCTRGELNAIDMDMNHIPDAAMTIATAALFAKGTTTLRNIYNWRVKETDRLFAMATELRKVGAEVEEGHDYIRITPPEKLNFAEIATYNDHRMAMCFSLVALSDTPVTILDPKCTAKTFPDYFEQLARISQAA
The class given is biochemical.

For series [3], the target named is 5-enolpyruvylshikimate-3-phosphate synthase (EPSPS) (Mycobacterium tuberculosis, UniProt P9WPY5). The experiment in a line: biochemical.
Substrate in the series “steady-state kinetics”: C=C(OP(=O)(O)O)C(=O)O
The experiment in a line: steady-state kinetics. The note with it: PEP/glyphosate-binding pocket. The class given is biochemical, Escherichia coli.

5-enolpyruvylshikimate-3-phosphate synthase (EPSPS) (Mycobacterium tuberculosis, UniProt P9WPY5), sequence (P9WPY5 whole entry): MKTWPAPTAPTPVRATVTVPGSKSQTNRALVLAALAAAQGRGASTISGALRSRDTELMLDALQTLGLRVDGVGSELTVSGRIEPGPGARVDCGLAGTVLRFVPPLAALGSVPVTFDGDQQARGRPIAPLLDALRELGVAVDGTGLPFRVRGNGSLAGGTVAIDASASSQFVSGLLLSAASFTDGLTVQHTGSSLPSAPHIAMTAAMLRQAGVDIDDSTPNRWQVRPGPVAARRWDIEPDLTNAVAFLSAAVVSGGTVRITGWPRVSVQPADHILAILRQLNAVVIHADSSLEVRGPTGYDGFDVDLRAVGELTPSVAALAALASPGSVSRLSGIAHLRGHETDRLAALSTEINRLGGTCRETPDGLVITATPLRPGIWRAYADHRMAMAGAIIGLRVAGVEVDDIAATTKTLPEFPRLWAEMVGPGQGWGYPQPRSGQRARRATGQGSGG

Take “5-enolpyruvylshikimate-3-phosphate synthase (EPSPS) (Mycobacterium tuberculosis H37Rv)”: the Km came out at 16 µM in series [1] and 104 µM in the series with C=C(OP(=O)(O)O)C(=O)O.
Turning to `O=C(O)CNCP(=O)(O)O` [glyphosate, N-phosphonomethyl-glycine], the IC50 in series [2] was 3 µM; in series [3] it was 260 µM.

B1: 5-enolpyruvylshikimate-3-phosphate synthase (EPSPS) (Escherichia coli K-12) (protein)
chain: T1 sequence (P0A6D3 1-427)
As to B1, in the series “steady-state kinetics”, the Km amounted to 52 µM.

In general, Km refers to the concentration of substrate that gives half-maximal velocity. Usually IC50 stands for the concentration that inhibits the measured activity by half. High values mean weaker potency in that assay, low ones greater potency in that assay.
